Results on 22 molecules are retold here after patent publication US20250136720A1 (Boehringer Ingelheim, published 2025).

Changes are numbered by the printed parent chain. Names may count otherwise.

Test [1] has as its target T1, Murine Fibroblast Activation Protein (FAP) on B16 cells (mouse, UniProt P97321 1-761).
T1 construct: B16 cells transduced with murine FAP cDNA; also called B16-FAP
Description: flow cytometry, scFv-Fc on B16-FAP cells. Background: In flow cytometry, cells or beads pass a laser one at a time.

The target in test [2] is T2, Human Fibroblast Activation Protein (FAP) on HT1080 cells (human, UniProt Q12884 1-760).
T2 construct: HT1080 cells transduced with human FAP cDNA; also called HT1080-FAP; FAP+ HT1080
Put plainly: flow cytometry, scFv-Fc on HT1080-FAP cells.

Test [3] deals with T3, Human CD137 on Jurkat cells (human, UniProt Q07011 24-255).
T3 construct: whole, on cells; also called full-length human CD137-expressing Jurkat cell line; NF-kB-Luc2/4-1BB Jurkat
Description: flow cytometry, Jurkat cells.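 Note: binding of antibody-containing supernatants to NF-kB-Luc2/4-1BB Jurkat cells, detected by flow cytometry with a PE-labelled anti-human IgG-Fc secondary antibody.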
Description: Briefly, HTP supernatants containing recombinant IgG1 (KO) antibodies, were assayed by flow cytometry for binding to the NF-kB-Luc2/4-1BB Jurkat cell line. […] The cells were washed x3 with staining buffer. A Goat F(ab′)2 anti-human IgG-Fc PE secondary antibody was added to the cells and the plate was incubated for 30 min at 4° C. The cells were wash ×3 with staining buffer.

T1 sequence (P97321 other isoform, or with tags, fused parts or gaps): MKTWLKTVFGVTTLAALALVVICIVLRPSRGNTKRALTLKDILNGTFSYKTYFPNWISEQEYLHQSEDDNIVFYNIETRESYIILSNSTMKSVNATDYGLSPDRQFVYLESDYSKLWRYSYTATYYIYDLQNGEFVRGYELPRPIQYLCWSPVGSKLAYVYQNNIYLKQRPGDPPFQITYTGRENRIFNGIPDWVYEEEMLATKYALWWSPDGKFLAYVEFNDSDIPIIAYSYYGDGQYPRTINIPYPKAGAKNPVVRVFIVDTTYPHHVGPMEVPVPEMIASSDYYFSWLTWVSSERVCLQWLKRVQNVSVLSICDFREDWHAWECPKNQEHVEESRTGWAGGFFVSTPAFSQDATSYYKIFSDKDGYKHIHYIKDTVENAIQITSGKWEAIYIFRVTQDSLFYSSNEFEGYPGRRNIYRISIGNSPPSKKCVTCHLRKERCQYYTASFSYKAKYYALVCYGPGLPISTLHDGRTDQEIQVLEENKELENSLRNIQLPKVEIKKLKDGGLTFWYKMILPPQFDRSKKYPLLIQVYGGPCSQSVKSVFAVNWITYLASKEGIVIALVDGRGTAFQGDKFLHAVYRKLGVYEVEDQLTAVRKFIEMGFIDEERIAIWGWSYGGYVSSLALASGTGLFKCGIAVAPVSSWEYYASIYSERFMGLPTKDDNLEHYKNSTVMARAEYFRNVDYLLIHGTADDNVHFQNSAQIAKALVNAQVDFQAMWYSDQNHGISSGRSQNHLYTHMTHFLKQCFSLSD

B1: FAP.63.G3 (Fc fusion)
VH: DVQLVESGGGVVRPGESLTLSCAASGFTFSNYDMGWVRQAPGEGLEWVSGIRGRGGSTYYADSVKGRFTISRDSSKNTLYLQMNSLRAEDTAVYYCAKENNRHSFFEYWGLGTLVTVSS
VL: EIVLTQSPGTLSLSPGERATLSCRASQSVGHYLAWYQQKPGQAPRLLIYDASNRAIDIPDRFSGSGSGTEFTLTISRLEPEDFAVYYCQQYYNNWPPLTFGGGTKVEIK
notes: Tested as scFv-Fc; orientation, linker and Fc not specified; also called FAP.63.C3; FAP 63.C3
As to B1, the MFI in test [1] is 1410 MFI; in test [2], 72800 MFI.

B2: FAP.63.H3 (Fc fusion)
VH: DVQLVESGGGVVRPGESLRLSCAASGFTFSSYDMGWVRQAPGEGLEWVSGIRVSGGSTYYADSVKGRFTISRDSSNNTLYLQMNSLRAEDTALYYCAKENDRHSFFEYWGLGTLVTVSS
VL: B1 VL with H31Y, N53D, I56T, D57A
notes: Tested as scFv-Fc; orientation, linker and Fc of this construct not specified
Take B2: the MFI in test [1] was 2830 MFI; in test [2] it was 75000 MFI.

B3: CD137 #A26 (antibody, human IgG1, V domains shown)
VH: EVQLQESGPSLVKPSQTLSLTCSVTGDSITSGYWNWNRKFPGNKFEYMGYISYSDSAYYNPSLKSRISITRDTSKNQYYLQLNSVTTEDTATYYCTRWGIPFAFWGQGTLVTVSA
VL: DIKMTQSPSSMYASLGERVTITCKASQDIDSYLYWFQQKPGKSPETLIYHANRLVDGVPSRFSGSGSGQDYSLTISSLEYEDMGIYYCLQYDEFPYTFGGGTKLEIK
notes: human IgG1 KO (L234A/L235A)/kappa chimeric IgG
As to B3, the binding result in test [3] is recorded as “binds”.

B4: CD137 #B4 (antibody, human IgG1, V domains shown)
VH: DVQLQESGPGLVKPSQSLSLTCTVTGYSITSDYAWNWIRQFPGNRLEWMGYISYSGSTSYNPSLKSRISITRDTSKNQFFLQLNSVTTEDTATYFCARWGYVLDYWGQGTSVTVSS
VL: DIVMTQSHKFMSTSEGDRVSITCKASQDVSTAVAWYQQKPGQSPKLLIYWASTRHTGVPDRFRGSGSGTDYTLTISSVQAEDLALYFCQQHYFTPYTFGGGTKLEIK
notes: as for B3
B4: the binding result in test [3] is given as “binds”.

B5: FAP.63.D7 (Fc fusion)
VH: DVQLVESGGGVVRPGESLRLSCAASGFTFSSYAMSWVRQTPGEGLEWVSFISSGGAYTHYTDSVKGRFTISRDNSKNTLYLQMNSLRAEDTAVYYCAKEKEIWNAFFDYWGLGTLVTVSS
VL: EIVLTQSPATLNLSPGDRATLTCRASQTVGSKLAWYQQTSGQAPRLLIYDASSRATGIPDRFSGSGSGTEFTLTISSLEPEDFAVYVCQQYYDWPPLTFGGGTKVEIK
notes: as for B2
As to B5, the figures for the MFI in test [1] and in test [2] were 3360 MFI and 49100 MFI, respectively.

B6: CD137 #B7 (antibody, human IgG1, V domains shown)
VH: EVQLQESGPSLVKPSQTLSLTCSVTGDSITSGYWNWIRKFPGNKLEFMGYITYSGSTYYNPSLKSRISITRDTSRNQFYLQVNSVTTEDTATYFCTRYYYYGSTYYAMDYWGQGTSVTVSS
VL: NIVLTQSPASLAVSLGQRATISCRVSESVDSYGNSFMHWFQQKPGQSPKLLIYLASNLESGVPARFSGSGSRTDFTLTIDPVEADDAATYYCQQNIEDPPTFGGGTKLEIK
notes: as for B3
On to B6, for which the binding result in test [3] is “binds”.

B7: CD137 #A27 (antibody, human IgG1, V domains shown)
VH: QVQLQQSGAELTRPGASVKLSCKASGYTFTNYWIQWIKQRPGQGLEWIGTIYPENGDTRYTQKFKGKATLTADKSSSTAYMQLSSLASEDSAVYYCARGLLEGAHYWGQGTTLTVSS
VL: DILLTQSPAILSVSPGERVSFSCRASQSIGASIHWYQQRTNGSPRLLIKFSSESISGIPSRFSGSGSGTDFTLTINSVESEDIADYYCQQTNSWPTAFGGGTKLEMK
notes: as for B3
As to B7, in test [3], the binding result was “binds”.

B8: CD137 #A16 (antibody, human IgG1, V domains shown)
VH: QVQLQQPGAELVKPGASVKLSCKASGYTFTNFWINWVKQRPGQALEWIGNIYPGNDNTNYNGNFKTKATLTVDRSSSTAYMHLSSLTSKDSAVYYCARGQLGLDYWGQGTTLTVSS
VL: DILLTQSPAILSVSPGERVSFSCRASQNIGTTIHWYHQRTNGSPRLLIKFASESISGIPSRFSGSGSGTDFTLSINSVESEDFADYYCQQSNSWPFTFGSGTKLEIK
notes: as for B3
On to B8, for which the binding result in test [3] is given as “binds”.

B9: CD137 #B1 (antibody, human IgG1, V domains shown)
VH: B8 VH
VL: B8 VL
notes: as for B3
Consider B9, for which the binding result in test [3] is on record as “binds”.

B10: CD137 #B2 (antibody, human IgG1, V domains shown)
VH: B8 VH with A44G, D56T, N57G, G62E, N63R, R74I, H82R, K89E
VL: B8 VL with N28I, H34Q, H37Q, F50Y, I55L, S77N, F83I, N92H
notes: as for B3
With B10, in test [3], the binding result is “binds”.

B11: CD137 #B13 (antibody, human IgG1, V domains shown)
VH: B8 VH
VL: B8 VL
notes: as for B3
For the molecule B11, the binding result in test [3] is on record as “binds”.

B12: CD137 #A17 (antibody, human IgG1, V domains shown)
VH: B8 VH with T66S
VL: B8 VL with T32A
notes: as for B3
Consider B12, for which the binding result in test [3] is given as “binds”.

B13: CD137 #B31 (antibody, human IgG1, V domains shown)
VH: QVQLQQSGPQLIRPGASVKISCKASGYSFTGYWIHWVKQRPGQGLEWIGMIDPSDSETRLNQKFKDKATLTVDKSSTTAYMQLSSPTSEDSAVFYCARYRNYGYDGFAHWGQGTLVTVSA
VL: DIVMTQSPSSLTVTAGEKVTMSCKSSQSLLNSGNEKNYLAWYQQKPGQPPKLLIYWASTRESGVPDRFTGSGSGTDFTLTISSVQTEDLAVYHCQNDYSLPLTFGAGTKLELK
notes: as for B3
With B13, in test [3], the binding result is on record as “binds”.

B14: CD137 #A39 (antibody, human IgG1, V domains shown)
VH: QVQLQQSGAELMKPGSSVKLSCKAPGYKFTDYWIEWVKQRPGHGLDWIGNILPGTINTNSNENFKGKATFTADTSSNTAYMQLSSLTSEDSAVYYCARRSLEYYFDYWGQGTTLTVSS
VL: DIVVTQSPASLAVSLGQRATISCRASQSVSTSRYSYMHWYQQKPGQPPRLLINYASNLESGVPARFSGSGSGTDFTLNIHPVEEEDTATYYCQHTWEIPWTFGGGTKLEIK
notes: as for B3
In the case of B14, the binding result in test [3] is “binds”.

B15: CD137 #B27 (antibody, human IgG1, V domains shown)
VH: QVQLQQSGAELVRPGASVKISCKAFGYTFTNHHINWVKQRPGQGLDWIGYINPYNDYSGYNQKFKGRATLTVDKSSNTAYMELSSLTSEDSAVYYCATPGTWEGYYFDYWGQGTTLTVSS
VL: DVVMTQTPLSLPVSLGDQASISCRSSQSLVHSNGNTYLEWYLQKPGQSPKVLIYMVSNRFSGVPDRFSGSGSGTDFTLKISRVEAEDLGVYYCFQGSHIPLTFGAGTKLELK
notes: as for B3
As for B15, in test [3], the binding result is “binds”.

B16: CD137 #A3 (antibody, human IgG1, V domains shown)
VH: DVQLQESGPGLVKPSQSLSLTCTVTGYSITSDYGWNWIRQFPGNKVEWMGYISYSGSTSYNPSLKSRISITRDTSKNQFFLQLKSVTTEDTATYYCARSDPYYGISWFAYWGQGPLVTVSA
VL: DIQMTQTTSSLSASLGDRVTISCRASQDISNFLNWYQQKPDGTVKLLIYYTSRLHSGVPSRFSGSGSGTDYSLTISNLEQEDIATYFCQQSHTLPWTFGGGTKLEIK
notes: as for B3
For B16, the binding result in test [3] is “binds”.

B17: FAP.65.F1 (Fc fusion)
VH: DVQLVESGGGLVHPGGSLRLSCAASTFTFANYIMSWVRQAPGKGLEWVSGITGSSTNTYYTDSVKGRFTISRDNSKNTLYLEMNSLRAEDTAVYYCAKHQLYPYYAMDVWGQGTTVTVSS
VL: EIVLTQSPGSLSLSPGERATLSCRASQPIDSYLAWYQQKPGQAPRLLIYGASTRATDIPDRFSGSGSGTEFTLTISSLQSEDFAVYYCQQYYDWPPVTFGGGTKVEIK
notes: as for B2
On to B17, for which the results for the MFI in test [1] and in test [2] were 1840 MFI and 35600 MFI, respectively.

B18: CD137 #B20 (antibody, human IgG1, V domains shown)
VH: EVKLVESEGGLVQPGSSMKLSCTASGFTFSDFYMAWVRQVPEKGLEWVANINYDGSSTYYLDSLKSRFIISRDNARNILYLQMSSLKSEDTATYYCAREGDEGWYFDVWGAGTTVTVSS
VL: DIVMTQSHKFMSTSVGDRVSITCKASQDVSTAVAWYQQKPGQSPKLLIYSASYRYTGVPDRFTGSGSGTDFTFTISSVQAEDLAVYYCQQHYSNPWTFGGGTKLEIK
notes: as for B3
For the molecule B18, the binding result in test [3] is “binds”.

B19: CD137 #B21 (antibody, human IgG1, V domains shown)
VH: B18 VH
VL: B18 VL
notes: human IgG1 KO (L234A/L235A)/kappa chimeric IgG; also called CD137 #1; B21 parent
For the molecule B19, the binding result in test [3] is reported as “binds”.

B20: CD137 #A25 (antibody, human IgG1, V domains shown)
VH: DVQLVESGGGLVQPGGSRKLSCAASGFSFSSFGMHWVRQAPEKGLEWVAYISSGSSTIYYADTVKGRFTISRDNPKNTLFLQMTSLRSEDTAMYYCVRDWTDYWGQGTTLTVST
VL: QIVLTQSPAIMSASLGEEITLTCSATSSVSYMHWSQQKSGTSPKLLIYTTSNLASGVPSRFSGSGSGTFYSLTISSVEAEDAADYYCHQWTTYPWTFGGGTKLEIK
notes: as for B3
For B20, the binding result in test [3] is on record as “binds”.

B21: CD137 #A42 (antibody, V domains shown)
VH: QVQLQQSGPGLVKPSQTLSLTCAISGDSVSSNSAAWNWIRQSPSRGLEWLGRTYYRSNWYNDYAVSVESRITIKPDTSKNQFSLQLNSVTPEDTAVYYCARMDSGTYLDAFDIWGQGTMVTVSS
VL: EIVMTQSPATLSVSPGERATLSCRASQSVGRNLAWYQQKPGQTPRLLIYGASTRATGIPAIFSGSGSGTEFTLTISSLQSEDFAVYYCQQYNYWPPFTFAQGTKLEIK
notes: as for B3
Turning to B21, the binding result in test [3] is reported as “binds”.

B22: CD137 #A49 (antibody, human IgG1, V domains shown)
VH: QVQLQESGPGLVKPSETLSLTCTVSGGSISSYYWSWIRQPPGKGLEWIGYIYYSGSTNYNPSLKSRVTISVDTSKNQFSLKLSSVTAADTAVYYCARDQSGGGSFQHWGQGTLVTVSS
VL: EIVMTQSPLSLPVTPGEPASISCRSSQSLLYSNGYNHLDWYLQKPGQSPQLLIYLGSNRASGVPDRFSGSGSGTDFTLKISRVEAEDVGVYYCMQALQTPPTFGQGTKLEIK
notes: human IgG1 KO (L234A/L235A)/kappa IgG; also called CD137 #7; A49 Parent
As to B22, the binding result in test [3] is listed as “binds”.
